Assay results from patent US20240352433, “ENZYMES WITH HEPN DOMAINS” (Metagenomi, Inc., published 2024).
Residue numbers refer to the chain shown, from its start.

What was measured:
MG105-1 = biological target: T1, MG105-1 (uncultivated organism); assay: crRNA processing: 10 nt trimmed 5' of spacer, 36 nt repeat retained; spacer 5' of repeat
T1 chain: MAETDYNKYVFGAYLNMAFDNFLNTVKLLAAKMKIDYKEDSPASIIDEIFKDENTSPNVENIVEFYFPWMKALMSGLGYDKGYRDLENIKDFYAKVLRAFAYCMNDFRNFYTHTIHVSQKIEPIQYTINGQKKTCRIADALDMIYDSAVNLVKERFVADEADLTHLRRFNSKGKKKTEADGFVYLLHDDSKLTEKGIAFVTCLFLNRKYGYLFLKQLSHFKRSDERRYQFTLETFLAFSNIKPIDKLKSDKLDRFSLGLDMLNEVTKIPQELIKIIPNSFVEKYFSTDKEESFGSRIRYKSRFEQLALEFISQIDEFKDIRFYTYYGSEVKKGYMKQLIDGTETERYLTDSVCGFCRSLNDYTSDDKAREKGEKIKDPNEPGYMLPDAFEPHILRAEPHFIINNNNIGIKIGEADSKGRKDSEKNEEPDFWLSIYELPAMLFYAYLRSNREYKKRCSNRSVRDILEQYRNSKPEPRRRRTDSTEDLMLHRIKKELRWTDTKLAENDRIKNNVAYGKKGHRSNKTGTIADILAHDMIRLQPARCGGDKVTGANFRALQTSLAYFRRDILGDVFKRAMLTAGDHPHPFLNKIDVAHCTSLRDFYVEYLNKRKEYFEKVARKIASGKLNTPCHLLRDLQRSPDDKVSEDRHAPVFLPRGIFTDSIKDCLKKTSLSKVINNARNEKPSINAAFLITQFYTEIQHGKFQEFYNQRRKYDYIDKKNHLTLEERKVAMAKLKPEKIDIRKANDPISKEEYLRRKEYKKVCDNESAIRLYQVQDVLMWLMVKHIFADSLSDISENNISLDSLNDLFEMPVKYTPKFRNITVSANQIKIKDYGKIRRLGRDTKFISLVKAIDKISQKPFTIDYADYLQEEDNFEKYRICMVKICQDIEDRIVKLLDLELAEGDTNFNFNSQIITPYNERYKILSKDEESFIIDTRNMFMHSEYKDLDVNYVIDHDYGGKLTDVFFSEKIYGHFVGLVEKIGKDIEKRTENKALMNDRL
Description: (§1) RNA was extracted from PURExpress cell lysate expressions following the Quick-RNA™ Miniprep Kit (Zymo Research) and eluted in 30-50 μL of water. 5′ ends of the processed crRNA were mono-phosphorylated with 10 units of T4 Polynucleotide Kinase, 40 units of Murine RNase Inhibitor, and 1X of T4 DNA Ligase Buffer (NEB Inc.) in 25-50 μL reactions. Following a 30-minute incubation at 37° C., reactions were stopped with column purification using Monarch® RNA Cleanup Kit ([…]) (NEB Inc.). The total concentration of the transcripts were measured on a Nanodrop, Tapestation, and Qubit.
(§2) 100ng-1pg of total RNA from each sample were prepped for RNA sequencing using the NEBNext Small RNA Library Prep Set for Illumina (NEB Inc.). Amplicons between 150-300 bp were quantified by Tapestation and Qubit and pooled to a concentration of 4 nM. A concentration of […] was loaded into a MiSeq V3 kit and sequenced in a Miseq system (Illumina) for 176 total cycles. The RNAseq reads were used to identify the processed crRNA sequences. Illumina adapters were removed from all reads using fastp (see e.g., Bioinformatics 2018, 34 (17), i884-i890, which is incorporated by reference herein in its entirety). […]

MG103-6 = biological target: T2, MG103-6 (uncultivated organism); assay: crRNA processing by RNAseq: 6 nt trimmed from 5' of repeat, 30 nt repeat, 21 and 26 nt spacers
T2 chain: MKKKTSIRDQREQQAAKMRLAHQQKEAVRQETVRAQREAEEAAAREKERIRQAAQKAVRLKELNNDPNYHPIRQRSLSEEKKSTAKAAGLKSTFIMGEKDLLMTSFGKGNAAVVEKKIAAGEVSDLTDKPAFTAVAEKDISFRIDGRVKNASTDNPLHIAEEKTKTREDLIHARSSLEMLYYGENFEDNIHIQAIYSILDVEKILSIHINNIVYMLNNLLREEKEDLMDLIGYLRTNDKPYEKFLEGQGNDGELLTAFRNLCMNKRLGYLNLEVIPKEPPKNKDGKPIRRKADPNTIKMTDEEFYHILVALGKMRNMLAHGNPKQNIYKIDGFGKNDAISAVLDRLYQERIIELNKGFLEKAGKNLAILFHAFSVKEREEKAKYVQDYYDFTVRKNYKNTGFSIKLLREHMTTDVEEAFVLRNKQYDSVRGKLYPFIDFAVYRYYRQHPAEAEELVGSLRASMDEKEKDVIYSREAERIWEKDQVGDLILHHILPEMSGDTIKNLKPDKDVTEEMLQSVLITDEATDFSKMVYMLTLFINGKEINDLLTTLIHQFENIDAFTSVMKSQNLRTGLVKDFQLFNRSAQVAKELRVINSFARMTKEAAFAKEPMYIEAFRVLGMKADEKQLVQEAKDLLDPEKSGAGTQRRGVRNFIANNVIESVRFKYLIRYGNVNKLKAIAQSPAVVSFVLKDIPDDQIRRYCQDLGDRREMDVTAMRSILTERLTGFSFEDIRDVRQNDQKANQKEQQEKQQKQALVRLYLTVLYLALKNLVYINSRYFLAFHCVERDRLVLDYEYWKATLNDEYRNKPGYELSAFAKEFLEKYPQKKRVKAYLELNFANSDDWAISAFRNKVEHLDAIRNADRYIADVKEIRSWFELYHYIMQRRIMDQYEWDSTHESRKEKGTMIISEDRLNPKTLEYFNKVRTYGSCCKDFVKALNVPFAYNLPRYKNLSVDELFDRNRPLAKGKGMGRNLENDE
Description: as §1, §2

MG103-12 = biological target: T3, MG103-12 (uncultivated organism); assay: crRNA processing by RNAseq: 30 nt repeat, 21 nt spacer
T3 chain: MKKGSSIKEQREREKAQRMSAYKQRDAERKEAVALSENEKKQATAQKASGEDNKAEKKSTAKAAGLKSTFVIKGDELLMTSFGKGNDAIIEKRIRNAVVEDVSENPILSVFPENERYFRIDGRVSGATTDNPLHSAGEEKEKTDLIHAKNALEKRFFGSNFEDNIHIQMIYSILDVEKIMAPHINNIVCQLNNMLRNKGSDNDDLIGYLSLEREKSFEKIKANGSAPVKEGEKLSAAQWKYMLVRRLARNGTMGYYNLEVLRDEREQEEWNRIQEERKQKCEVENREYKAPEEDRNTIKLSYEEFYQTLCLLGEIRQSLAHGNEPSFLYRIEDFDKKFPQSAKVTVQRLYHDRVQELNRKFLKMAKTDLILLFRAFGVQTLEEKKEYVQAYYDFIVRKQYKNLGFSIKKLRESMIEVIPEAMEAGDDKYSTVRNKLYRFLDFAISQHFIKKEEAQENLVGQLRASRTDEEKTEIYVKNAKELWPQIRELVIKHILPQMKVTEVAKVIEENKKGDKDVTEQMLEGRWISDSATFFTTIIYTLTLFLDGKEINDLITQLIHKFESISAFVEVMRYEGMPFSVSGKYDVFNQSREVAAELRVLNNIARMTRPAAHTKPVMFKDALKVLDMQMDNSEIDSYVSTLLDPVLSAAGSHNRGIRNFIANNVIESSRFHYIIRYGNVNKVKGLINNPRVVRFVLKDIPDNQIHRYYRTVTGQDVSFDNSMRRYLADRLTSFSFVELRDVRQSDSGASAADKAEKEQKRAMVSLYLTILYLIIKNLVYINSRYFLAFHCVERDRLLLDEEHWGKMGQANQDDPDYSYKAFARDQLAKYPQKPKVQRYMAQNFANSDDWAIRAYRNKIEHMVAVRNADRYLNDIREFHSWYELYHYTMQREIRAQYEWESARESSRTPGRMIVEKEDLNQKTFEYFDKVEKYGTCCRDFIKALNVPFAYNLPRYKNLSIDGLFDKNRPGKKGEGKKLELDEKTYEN
Description: as §1, §2

B1: 105-1_MA_30_REV array (ssRNA)
RNA: GGUUGUAACAGCCUUUAGUUUGUAAGGUAAAAACAACCCGUCCAGCUCGACCAGGAUGGGAACAACGGUUGUAACAGCCUUUAGUUUGUAAGGUAAAAACAACAGGCUAGGUGGAGGCUCAGUG
B1: binds (MG105-1).

B2: 103-6_MA_30_REV array (ssRNA)
RNA: GGAACUACACCCUUACGAACUCGUAGGGGUCUGAAACCCGUCCAGCUCGACCAGGAUGGGAACAACGGAACUACACCCUUACGAACUCGUAGGGGUCUGAAACAGGCUAGGUGGAGGCUCAGUG
B2: binds (MG103-6).

B3: 103-12_MA_30_FWD array (ssRNA)
RNA: B2 RNA with G17C, A18G, C20U, C22G, G26A, G83C, A84G, C86U, C88G, G92A
B3: binds (MG103-12).
